Test: yeast display, Sf9 membrane polyspecificity reagent, FACS + sequencing; frameworks hold sequencing errors
Method in brief: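 Galactose induction of a Saccharomyces cerevisiae BJ5465 synthetic nanobody display library ran 36–48 hours. The cells were then stained for 1 hour at 4 °C with 10% biotinylated, detergent-solubilized Sf9 membrane reagent, pulled down on streptavidin microbeads and FACS-sorted into low and high (top ~1%) gates on expression and reagent-binding fluorescence. Labels for polyreactivity follow the gate of origin.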

Sequence: QVQLVESGGGLFQAGGSLRLSCAASGSTIQQYAMGWYRQAPGKEREFVAAISWRGGRTYYADSVKGRFTISRDNAKNTVYLQMNRLKPEDTAVYYCAVDPSIYRLSAYYYDYWGQGTQVTVSS
- polyreactivity (PSR sort gate): low polyreactivity

Sequence: QVQLVESGGGLFQAGGSLRLSCAATGRTIVIYAMRWYRQAPGKERELVAAISFSGDTAYYADSVKGRFTISRDNAKNTVYLQMNSLKPDHTAVYYCAAVTQPWSYYRRDYWGQGTQVTVSS
- polyreactivity (PSR sort gate): high polyreactivity

Sequence: QVQLVESGGGLFQAGGSLRLSCAAYGRTFYVYALGWYRQAPGKEREFVAAITSSGGSTYYADSVKGRFTISRDNAKNTVYLQMNSLKPEDTAVYYCAADDWDWENDYWGQGTQVTVSS
- polyreactivity (PSR sort gate): low polyreactivity

Sequence: QVQLVESGGGLFQAGGSLRLSCAPSGHIFFYYTMGWYRPAPGKERELVAGITIGGSTNYADSVKGRFTISRDNAKNTVYLQMNSLKPEDTAVYYCNVVKYVYIYSYWESYYWGQGTQVTVSS
- polyreactivity (PSR sort gate): low polyreactivity

Sequence: QVQLVESGGGLFQAGGSLRLSCAPSGRIFRYNAMGWYRQAPGKERELVASISGSGGSTYYADSVKGRFTISRDNAKNTVYLQMNSLTPEDTAVYYCAAQWRYQYPESLESYYWGQGTQVTVSS
- polyreactivity (PSR sort gate): high polyreactivity

Sequence: QVQLVESGGGLFQARGSLRLSCAASGSTFGFYARGWYRQATGKERELVAASSRGGSTNYADSVKGRFTISRDNAKNTVYLQLNSLKPEDTAGYYCAKAYHATSDYWGQGTQVTVSS
- polyreactivity (PSR sort gate): low polyreactivity

Sequence: QVQLVESGGGLFQAVGSLRLSCAASGLFFIKYTMGWYRQAPGKERELFAVISGSGGSTYYADSVKGRFTISRDNAKNTVYLQMNSLKPEDTAVYYCAARSYALGYGGGYWGQGTQVTVSS
- polyreactivity (PSR sort gate): high polyreactivity

Sequence: QVQLVESGGGLFQEGGSLRVSCAASGRIFIANAMGWYRQAPGKERELVAAISFSGGSTYYADSVKGRFTISRDNAKSTVYLQLNSLKPEDTAVYFCIKVGIRYYYGYDYWGHGTQVTVSS
- polyreactivity (PSR sort gate): high polyreactivity

Sequence: QVQLVESGGGLGQAGCSLRLSCAASGSTFAVYAMGWYRQAPGKERELVATITGSGGSTYYADSVKGRFTISRDNAKNPVYLQMNSLKPEDNAVYYCAAEVVAWSLYEDFKTYDYWGQGTQVTVSS
- polyreactivity (PSR sort gate): low polyreactivity

Sequence: QVQLVESGGGLGQAGGSLRLSCAASGFILRYNAMGWYRQAPGKERELVAAISYTGDRTYYADSVKGRFTISRDNAKNTVYLQMNSLKPEDTAVYYCKAGKGQRALVRIGSKLMYYWGHGTQVTVSS
- polyreactivity (PSR sort gate): high polyreactivity

Sequence: QVQLVESGGGLGQAGGSLRLSCAASGITFGDYAMGWYIQAPGKERELVAAISTSGVRTYYADSVKGRFTISRDNAKNTVYLQMNSLKTEDTAVYYCAAKYYGEMYYWGQVTQVTVSS
- polyreactivity (PSR sort gate): low polyreactivity

Sequence: QVQLVESGGGLGQAGGSLRLSCAASGLIFSPYDMGWYRQAPGKERELVGAISNGDSTNYADSVKGRFTISRDNAKNTVYLQMNSLKAEDTAVYYCNAAIPSWLEYEYWGQGTQVTVSS
- polyreactivity (PSR sort gate): low polyreactivity

Sequence: QVQLVESGGGLGQAGGSLRLSCAASGLTFLDYAMGWSRQAPGKERELVAAITSGGSTNYADSVKGRFTISRDKAKNTVYLQMNSLKPEDTAVYYFATDLEVSAYDYWGQGTQVTVSS
- polyreactivity (PSR sort gate): low polyreactivity

Sequence: QVQLVESGGGLGQAGGSLRLSCAASGNTFWAYAMGWYRQAPGKERELVAGISSRGSRTYFADSVKGRFTISRDNAKNTVYLQMNSLKPEDSAVDFCNALRTPPGYYPPFDYWGEGTQVTVSS
- polyreactivity (PSR sort gate): high polyreactivity

Sequence: QVQLVESGGGLGQAGGSLRLSCAASGRIFGYYAMGGYRQAPGKARELVAGIDWSGGNTYYADSVKGRFTISRDNAKNTVYLQMNSLKPEDTAVYYCAKYKGRGDSGYDSWGQGTQVTVSS
- polyreactivity (PSR sort gate): low polyreactivity

Sequence: QVQLVESGGGLGQAGGSLRLSCAASGRIFIDYAMGWYRQAPGKERELVAAITYSTGGTYYGDSVKGRFTISRDNAKNTVYLQMNSLKPEDTAVYYCNATYVWPGRRRDGYWGQGTQVTVSS
- polyreactivity (PSR sort gate): low polyreactivity

Sequence: QVQLVESGGGLGQAGGSLRLSCAASGRIFVDYAMGWYRQAPGKERELVAAINSGGSTNYADSVKGRFTISRDNAKNTVNLQMNSQKPEDTAVYYCNKDTLVYGYVQDYEYWGQGTQVTVSS
- polyreactivity (PSR sort gate): low polyreactivity

Sequence: QVQLVESGGGLGQAGGSLRLSCAASGRTFRLYAMGCYRQAPGKERELVASITSTGRTYYADSVKGRFTISRDNAKNTVYLQMNSLKPEDTAVYYCNAVALSNCEYDYWGQGTQVTVSS
- polyreactivity (PSR sort gate): high polyreactivity

Sequence: QVQLVESGGGLGQAGGSLRLSCAASGRTFYIYAMGWYRQAPGKERELVAANTWSTGGTYYADSVKGRFTISRDNAKNTVYLQMNSLKPEDTAVYYCAAGYDYKSTRHYYWGQGTQVTVSS
- polyreactivity (PSR sort gate): high polyreactivity

Sequence: QVQLVESGGGLGQAGGSLRLSCAASGRTLGIYAMGWYRPAPGTERELVAAITNGDSTHYADSVKGRFTISRDNAKNTVYLQMNSLKPEDTAVYYCAAEDHYEGYGGYYWGQGTQVTVSS
- polyreactivity (PSR sort gate): low polyreactivity

Sequence: QVQLVESGGGLGQAGGSLRLSCAASGSIFERNAMGWYRQAPGKERELVAAISSSGVSTYYADSVKGRFTISRDNAKNTVYLQMNSLKPEDTAVYYCNAVWRLRVRYGYWGQGTQVTVSS
- polyreactivity (PSR sort gate): high polyreactivity

Sequence: QVQLVESGGGLGQAGGSLRLSCAASGSIFGRYAMGWYRQAPGKERELVTVITSGGSTNYADSVKGRFTISRDNAKNTVYLQMNSVKPEDTAVFYCAVRPYELHRLADQHGGDDYWGQGTQVTVSS
- polyreactivity (PSR sort gate): low polyreactivity

Sequence: QVQLVESGGGLGQAGGSLRLSCAASGSIFHPYAMGWYRQAPGKERELVASITSSGGSTYYADSVKGRFTISRDTAKNTVYLQMNSMKPEDTAVYYCNAQFLVYFYWYSTTAYIMYYWGQGTQVTVSS
- polyreactivity (PSR sort gate): low polyreactivity

Sequence: QVQLVESGGGLGQAGGSLRLSCAASGSIFYSYAMGSYRQATGKERELVAAINWSGGSTYYADSVKGRFTISRDNAKNTVSLLMNSLKPEDTAVYYCAAGPGDSGDDYWGQCTQVTVSS
- polyreactivity (PSR sort gate): low polyreactivity

Sequence: QVQLVESGGGLGQAGGSLRLSCAASGSTFYKYAMGWYRQAPGKERELVASITWSGTSTYYADSVKGRFTISRDNQKNTVFLQMNSLKAEDTAVYYCAAPKLDDYDYWGQGTQVTVSS
- polyreactivity (PSR sort gate): low polyreactivity

Sequence: QVQLVESGGGLGQAGGSLRLSCAASGYIFPIYAMGWYRQAPGKERELVAAITESGGSTYYADSVKGRFTISRDNAKNTVYLQMNSLKQEDTAVYYCAKEVVKHPRGKLDYWGQGTQVTLSS
- polyreactivity (PSR sort gate): low polyreactivity

Sequence: QVQLVESGGGLGQAGGSLRLSCAASGYTFARNAMGWYRQAPGKEREMVAAINWSGTNTYYADSVKGRFTISRDNAKNTVYLQMNSLKPEDTAVYYCAKDLYFSGYEFDYWGQGTQVTVSS
- polyreactivity (PSR sort gate): low polyreactivity

Sequence: QVQLVESGGGLGQAGGSLRLSSAASGRTFVFYAMGWYIQAPGKERELVAAITSSGGRTYYADSVKGRFTISRDNAKNTVYLQMNSLKPEDTAVYYCAAPYYPYKYDSWGQGTQVTGSS
- polyreactivity (PSR sort gate): low polyreactivity

Sequence: QVQLVESGGGLGQAVGRLRLSCAASGSTFDPNTMGWYRQAPGKERELVATITSVDSTNYADSVKGRFTISRDNAKNTVYLQMNSLKPEDTAVSYCNAAYGGVFFYAYDYWGQGTQVTVSS
- polyreactivity (PSR sort gate): low polyreactivity

Sequence: QVQLVESGGGLIQAGGSLRLSCAASGIIFYPYTMGWYRQAPGKERELVAAIRQSGTSTYYADSVKGRFTISRDNAKNTVYLQMNSLKPEDTAVYYCNADDHIYWRKGYDYWGQGTQVTVSS
- polyreactivity (PSR sort gate): low polyreactivity

Sequence: QVQLVESGGGLLHAGGSLRLSCAASGRTFPSYAMGWYRQAPGKERELVAAISSRGSRTYYADSVKGRFTISRDNAKNTVYLQMYSLKPEDTAVYYCAAKNLWTRKSRYDYWGQGTQVTVSS
- polyreactivity (PSR sort gate): high polyreactivity

Sequence: QVQLVESGGGLLKAGGSLRLSCAASGFTVDGYGMGWYRQAPGKERELVAVITSGGSTKYADSVKGRYTISRDNAKITVYLQMKSLKPEDTAVYYCNVVGGRYLYSAYDYWGQGTQVTVSS
- polyreactivity (PSR sort gate): low polyreactivity

Sequence: QVQLVESGGGLLKAGGSLRLSCAASRITFYIYPIVWYRQAPGKERELVATISWSDGRTYYADSVKGRFTISRDNAEHTVYLQLYSLKPEDTAVYYCAADWWYYQFDYEYWGQGTPVTVSS
- polyreactivity (PSR sort gate): low polyreactivity

Sequence: QVQLVESGGGLLLAGGSLRLSCAASGNIFRANTRGWYRQAPGKERELVASIRRSGGSTYYADSVKGRFTISRDNAKNTVYLQMNSLKPEDTAVYYCAAKSRPPYTDNYYWGQGTQVTVSS
- polyreactivity (PSR sort gate): high polyreactivity

Sequence: QVQLVESGGGLLQAAGSLSLSCAASGSIFKYYAMGWYRQAPGKERELVAAISASGGSTSYADSVKGRFTISRDNAKNTVYLQMNSLKPEDTAVYYCAADGVSYAYRYDYWGQGTQVTVSS
- polyreactivity (PSR sort gate): low polyreactivity

Sequence: QVQLVESGGGLLQAGGRLRLSCAASGSIFAAYTMGWYRQAPWKERELVAAISVSTVSTYYADSVKGRFTISRDNAKITVYLQMNSLKPEDTAVYYCNADPTDSYPQKYEHDSWGQGTQVTVSS
- polyreactivity (PSR sort gate): low polyreactivity

Sequence: QVQLVESGGGLLQAGGSLPLSCAASGRIFHQYAMGWYRQAPGKERELVAAISKTGTRTYYADSVKGRFTISRDNAKNTVYFQINSLKPDDTAVYYCNALYWTVYSREYDYWGQATQVTVSS
- polyreactivity (PSR sort gate): high polyreactivity

Sequence: QVQLVESGGGLLQAGGSLPLSCAASGSIFPGYAMGWYRQAPGKERELVATITWSGGSTYYADSVKGRFTISRDNAKNTVYLQMNSLNPADTAVYYCNADSNWYYQWNYYGLYDYWGQATQVTVSS
- polyreactivity (PSR sort gate): low polyreactivity

Sequence: QVQLVESGGGLLQAGGSLRISCAASGIIFRLYDMAWYRQAPGKERELVAAISSGGSTYYADSVKGRFTISRDNAKNTVYLQMNSLKPVDTAVYYCNARVRYKRTGRYGYWGQVTQVTVSS
- polyreactivity (PSR sort gate): high polyreactivity

Sequence: QVQLVESGGGLLQAGGSLRISCAASGSTFGVYAMGWYIPAPGKERELVAVIRRGGGTDYADSVKGRYTISRDNAKNTVYLQLDSLIPVDTAVYSCAATVVRTGYLTLEMDYWGQGTQVTVSA
- polyreactivity (PSR sort gate): low polyreactivity

Sequence: QVQLVESGGGLLQAGGSLRLICAASGSTFSTNAMGWYRQAPGKERELVAAISRSGGSTNYADSVKGRFTISRDNAKNTVYLQMNSLKPEDTAVYYCARYSYRGTNVRYDYWGQGTQVTVSS
- polyreactivity (PSR sort gate): high polyreactivity

Sequence: QVQLVESGGGLLQAGGSLRLSCAASGFIFRRNAMGWYIQAPGKEREFVASISKSSDLTYYADSVKGRFRISRDNAKNTVYLQMNSLKPEVTAVYYCAAKVRQWRHGSYSSQYDYWGQGTQVTVSS
- polyreactivity (PSR sort gate): high polyreactivity

Sequence: QVQLVESGGGLLQAGGSLRLSCAASGFTIDRYAMGWYRQAPGKERELVAAISWGGGSTYYAVSVKGRFTISRDNAKNTVYLQMNSLKPEDTAVYYCAASRGFYHPKYESWGQGTQVTVSS
- polyreactivity (PSR sort gate): high polyreactivity
